Test results from patent US20250000991A1, “NECTIN-4 ANTIBODIES AND ANTIBODY-DRUG CONJUGATES” (Eli Lilly and Company, priority 2023, published 2025).

How the values were obtained:
[1] = tested on: UM-UC-3 Nectin4 clone F7 xenograft; assay: Tumor xenograft, high nectin-4 expression; type: in vivo, mice (nu/nu); conditions: UMUC3 Nectin-4 clone F7 xenograft, single dose 2 mg/kg, day 40
Experimental: In order to test the efficacy of the nectin-4 ADCs of the present disclosure, which have effector null mutations in the Fc region, and to compare to the enfortumab antibody, which has wildtype Fc and in an ADC with the same payload background as the ones of this disclosure, two tumor xenograft models with either high or moderate nectin-4 expression were tested as described. Immune compromised female mice (nu/nu) between 5-8 weeks of age with weight 18-20 grams were implanted unilaterally on the right flank with UM-UC-3 Nectin4 clone F7 cells with high nectin-4 expression. […] The test articles were given at a single dose (2 mg/kg) formulated with 5% dextrose. Tumors were measured biweekly until Day 40.

MDA-MB-468 xenograft = assay: Tumor xenograft, moderate nectin-4 expression; type: in vivo, NSG mice; conditions: MDAMB468 xenograft, single dose 2 mg/kg, day 71
Experimental: In a separate study, female NSG mice between 5-6 weeks of age were injected subcutaneously with MDA-MB-468 cells with moderate Nectin-4 expression. When tumors reached approximately 150-250 mm^3; animals were matched by tumor volume into treatment or control groups and dosing initiated (Day 0, n=8 per group). The test articles were given at a single dose (2 mg/kg) formulated with 5% Dextrose. Tumors were measured biweekly until Day 71.
In both models, a 2 mg/kg single dose treatment of either the nectin-4 ADCs (exemplified herein with each of Abs1-8 conjugated as in Formula XI, and with a DAR of 8) or benchmark enfortumab ADC (enfortumab conjugated with Formula XI, and with a DAR of 8) was used. Tumor growth was measured at day 40 for UMUC3 Nectin-4 clone F7 and day 71 for MDAMB468 xenografts.

| Molecule | Mean tumor volume [1] [mm^3] | Mean tumor volume (MDA-MB-468 xenograft) [mm^3] |
| --- | --- | --- |
| Ab1a ADC: Ab1a conjugated as in Formula XI, and with a DAR of 8 (conjugate) heavy: QVQLVQSGAQVKKPGASVKVSCKASGYTFTGYYIHWVRQAPGQGLEWMGWINPNSGGTNYAQKFQGRVTMTRDTSISTAYMELSRLRSDDTAVYFCAREDWDFDYWGQGTLVTVSSASTKGPSVFPLAPSSKSTSGGTAALGCLVKDYFPEPVTVSWNSGALTSGVHTFPAVLQSSGLYSLSSVVTVPSSSLGTQTYICNVNHKPSNTKVDKRVEPKSCDKTHTCPPCPAPEAAGGPSVFLFPPKPKDTLMISRTPEVTCVVVSVSHEDPEVKFNWYVDGVEVHNAKTKPREEQYNSTYRVVSVLTVLHQDWLNGKEYKCKVSNKALPAPIEKTISKAKGQPREPQVYTLPPSREEMTKNQVSLTCLVKGFYPSDIAVEWESNGQPENNYKTTPPVLDSDGSFFLYSKLTVDKSRWQQGNVFSCSVMHEALHNHYTQKSLSLSPGK light: EIVLTQSPGTLSLSPGERATLSCRTSQSVSSSYLAWYQQKPGQAPRLLIYGASNRATDIPDRFSGSGSGTDFTLTINRLEPEDFAVYYCQQYGSSPITFGQGTRLEIKRTVAAPSVFIFPPSDEQLKSGTASVVCLLNNFYPREAKVQWKVDNALQSGNSQESVTEQDSKDSTYSLSSTLTLSKADYEKHKVYACEVTHQGLSSPVTKSFNRGEC | 234.79 | 135.24 |
| Ab6 ADC: Ab6 conjugated as in Formula XI, and with a DAR of 8 (conjugate) heavy: QVQLVQSGAEVKKPGASVKVSCKASGYTFTGYYMHWVRQAPGQGLEWMGIINPSGGSTTYAQKFQGRVTMTRDTSTSTVYMELSSLRSEDTAVYYCARGRLGTYFDYWGQGTLVTVSSASTKGPSVFPLAPSSKSTSGGTAALGCLVKDYFPEPVTVSWNSGALTSGVHTFPAVLQSSGLYSLSSVVTVPSSSLGTQTYICNVNHKPSNTKVDKRVEPKSCDKTHTCPPCPAPEAAGGPSVFLFPPKPKDTLMISRTPEVTCVVVSVSHEDPEVKFNWYVDGVEVHNAKTKPREEQYNSTYRVVSVLTVLHQDWLNGKEYKCKVSNKALPAPIEKTISKAKGQPREPQVYTLPPSREEMTKNQVSLTCLVKGFYPSDIAVEWESNGQPENNYKTTPPVLDSDGSFFLYSKLTVDKSRWQQGNVFSCSVMHEALHNHYTQKSLSLSPGK light: SYVLTQPPSVSVAPGQTARITCGGNNIGSKSVHWYQQKPGQAPVLVVYDDSDRPSGIPERFSGSNSGNTATLTISRVEAGDEADYYCQVWDRSSDQVVFGGGTKLTVLGQPKAAPSVTLFPPSSEELQANKATLVCLISDFYPGAVTVAWKADSSPVKAGVETTTPSKQSNNKYAASSYLSLTPEQWKSHRSYSCQVTHEGSTVEKTVAPTECS | 866.94 | 304.9 |
| Ab3 ADC: Ab3 conjugated as in Formula XI, and with a DAR of 8 (conjugate) heavy: EVQLVESGGGLVKPGGSLRLSCAASGFNLNHYNMNWVRQAPGKGLEWVSSVSSGGGFRYYADSVRGRFTISRDNAKNSLYLQMNSLRAEDTAVYYCARGAVFHDAFDIWGQGTLVTVSSASTKGPSVFPLAPSSKSTSGGTAALGCLVKDYFPEPVTVSWNSGALTSGVHTFPAVLQSSGLYSLSSVVTVPSSSLGTQTYICNVNHKPSNTKVDKRVEPKSCDKTHTCPPCPAPEAAGGPSVFLFPPKPKDTLMISRTPEVTCVVVSVSHEDPEVKFNWYVDGVEVHNAKTKPREEQYNSTYRVVSVLTVLHQDWLNGKEYKCKVSNKALPAPIEKTISKAKGQPREPQVYTLPPSREEMTKNQVSLTCLVKGFYPSDIAVEWESNGQPENNYKTTPPVLDSDGSFFLYSKLTVDKSRWQQGNVFSCSVMHEALHNHYTQKSLSLSPGK light: DIQLTQSPSFLSASVGDRVTITCRASQDISSYLAWYQQKPGKAPKLLIYVASTLQSGVPSRFSGSGSGTEFTLTISSLQPEDFATYYCQQINSYPFTFGQGTKVEIKRTVAAPSVFIFPPSDEQLKSGTASVVCLLNNFYPREAKVQWKVDNALQSGNSQESVTEQDSKDSTYSLSSTLTLSKADYEKHKVYACEVTHQGLSSPVTKSFNRGEC | 993.45 | 366.45 |
| Ab5 ADC: Ab5 conjugated as in Formula XI, and with a DAR of 8 (conjugate) heavy: QVQLVQSGAEVKKPGASVKVSCKASGYTFTSYYVHWVRQAPGQGLEWMGIINPSIISTSYAQKFQARVTMTRDTSTSTVYMELSSLRSEDTAVYYCARGLNFDAFDIWGQGTLVTVSSASTKGPSVFPLAPSSKSTSGGTAALGCLVKDYFPEPVTVSWNSGALTSGVHTFPAVLQSSGLYSLSSVVTVPSSSLGTQTYICNVNHKPSNTKVDKRVEPKSCDKTHTCPPCPAPEAAGGPSVFLFPPKPKDTLMISRTPEVTCVVVSVSHEDPEVKFNWYVDGVEVHNAKTKPREEQYNSTYRVVSVLTVLHQDWLNGKEYKCKVSNKALPAPIEKTISKAKGQPREPQVYTLPPSREEMTKNQVSLTCLVKGFYPSDIAVEWESNGQPENNYKTTPPVLDSDGSFFLYSKLTVDKSRWQQGNVFSCSVMHEALHNHYTQKSLSLSPGK light: DIQLTQSPSFLSASVGDRVTITCRASQGISSYLAWYQQKPGKAPKLLIYAASTLQSGVPSRFSGSGSGTEFTLTISSLQPEDFATYYCQQLNNYPFTFGQGTKVEIKRTVAAPSVFIFPPSDEQLKSGTASVVCLLNNFYPREAKVQWKVDNALQSGNSQESVTEQDSKDSTYSLSSTLTLSKADYEKHKVYACEVTHQGLSSPVTKSFNRGEC | 632.99 | 220.38 |
| Ab4 ADC: Ab4 conjugated as in Formula XI, and with a DAR of 8 (conjugate) heavy: QVQLQESGPGLVKPSETLSLTCTVSGGSISGYYWSWIRQPPGKGLEWIGYIYYSGSTNYNPSLKSRVTISVDTSKNQFSLKLSSVTAADTAVYYCARLGIFFDAFDIWGQGTLVTVSSASTKGPSVFPLAPSSKSTSGGTAALGCLVKDYFPEPVTVSWNSGALTSGVHTFPAVLQSSGLYSLSSVVTVPSSSLGTQTYICNVNHKPSNTKVDKRVEPKSCDKTHTCPPCPAPEAAGGPSVFLFPPKPKDTLMISRTPEVTCVVVSVSHEDPEVKFNWYVDGVEVHNAKTKPREEQYNSTYRVVSVLTVLHQDWLNGKEYKCKVSNKALPAPIEKTISKAKGQPREPQVYTLPPSREEMTKNQVSLTCLVKGFYPSDIAVEWESNGQPENNYKTTPPVLDSDGSFFLYSKLTVDKSRWQQGNVFSCSVMHEALHNHYTQKSLSLSPGK light: DIQLTQSPSFLSASVGDRVTITCRASQGISSYLAWYQQKPGKAPKLLIYAASTLQSGVPSRFSGSGSGTEFTLTISSLQPEDFATYYCQQFNSYPWTFGQGTKVEIKRTVAAPSVFIFPPSDEQLKSGTASVVCLLNNFYPREAKVQWKVDNALQSGNSQESVTEQDSKDSTYSLSSTLTLSKADYEKHKVYACEVTHQGLSSPVTKSFNRGEC | 928.09 | 343.65 |
